What all share (assay): cell-based or functional assay
Assay [1] concerns the target human glucagon receptor (human) (UniProt P47871).
In another assay the target is hGLP-1R (Homo sapiens, UniProt P43220).
Assay [2] deals with T1, human GIP receptor (human) (UniProt P48546).
T1 sequence (looked up): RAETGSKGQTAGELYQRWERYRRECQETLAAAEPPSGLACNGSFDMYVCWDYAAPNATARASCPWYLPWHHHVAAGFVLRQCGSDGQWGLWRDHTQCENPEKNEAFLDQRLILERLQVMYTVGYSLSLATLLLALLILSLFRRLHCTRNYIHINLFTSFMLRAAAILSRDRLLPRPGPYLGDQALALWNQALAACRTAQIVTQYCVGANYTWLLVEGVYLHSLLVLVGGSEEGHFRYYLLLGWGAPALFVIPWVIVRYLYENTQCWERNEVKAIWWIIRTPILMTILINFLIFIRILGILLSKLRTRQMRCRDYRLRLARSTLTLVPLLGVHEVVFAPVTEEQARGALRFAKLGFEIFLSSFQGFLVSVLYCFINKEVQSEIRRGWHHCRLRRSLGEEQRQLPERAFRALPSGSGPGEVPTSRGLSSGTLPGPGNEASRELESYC

human glucagon receptor (human), sequence (P47871 26-477): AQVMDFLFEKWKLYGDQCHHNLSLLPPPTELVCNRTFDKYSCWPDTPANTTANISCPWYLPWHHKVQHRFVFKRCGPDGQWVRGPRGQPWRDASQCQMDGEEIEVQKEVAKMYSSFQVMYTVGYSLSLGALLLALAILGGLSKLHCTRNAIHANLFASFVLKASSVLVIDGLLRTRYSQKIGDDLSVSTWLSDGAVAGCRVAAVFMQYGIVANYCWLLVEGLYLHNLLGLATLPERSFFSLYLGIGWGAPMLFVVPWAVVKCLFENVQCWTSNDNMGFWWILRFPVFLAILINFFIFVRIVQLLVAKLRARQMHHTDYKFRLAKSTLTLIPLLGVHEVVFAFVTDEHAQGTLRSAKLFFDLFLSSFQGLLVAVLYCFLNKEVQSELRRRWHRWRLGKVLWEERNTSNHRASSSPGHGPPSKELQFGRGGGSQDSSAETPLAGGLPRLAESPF
hGLP-1R, sequence (P43220 24-463): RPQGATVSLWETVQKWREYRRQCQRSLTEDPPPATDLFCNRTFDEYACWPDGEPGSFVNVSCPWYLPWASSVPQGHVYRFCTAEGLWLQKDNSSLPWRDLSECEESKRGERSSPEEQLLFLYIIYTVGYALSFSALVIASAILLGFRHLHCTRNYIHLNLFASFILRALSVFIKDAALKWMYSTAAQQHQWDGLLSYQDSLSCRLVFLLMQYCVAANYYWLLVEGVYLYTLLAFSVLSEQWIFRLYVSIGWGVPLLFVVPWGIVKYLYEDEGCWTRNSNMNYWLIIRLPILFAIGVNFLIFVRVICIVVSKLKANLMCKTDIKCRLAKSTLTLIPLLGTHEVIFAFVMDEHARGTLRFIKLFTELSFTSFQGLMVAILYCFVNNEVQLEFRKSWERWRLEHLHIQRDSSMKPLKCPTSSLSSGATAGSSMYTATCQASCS

B1: Example 1162 (peptide)
chain: YXQGTXTSDXXIXLDXKAQXEFIEXLVEGGPSSGAPPPSGSE
modifications: non-natural residues; Lys acylated C18 diacid via γGlu2; C-term amide; synthetic construct; SITE 2: note = 2-Aminoisobutyric Acid; SITE 6: note = alpha-methyl-2-fluoro-L-phenylalanine; SITE 10: note = 3-(4-Pyridyl)-L-alanine; SITE 11: note = alpha-methyl-L-serine; SITE 13: note = alpha-methyl-leucine; SITE 16: note = L-ornithine; SITE 17: note = Lysine is chemically mo
In the case of B1, the Relative cAMP EC50 turned out to be 2.55 nM in assay [1], 0.372 nM in the assay with hGLP-1R and 0.00818 nM in assay [2]. Also, the cAMP Rel EC50 (in the presence of 1% HSA) amounted to 199 nM in assay [1], 34.5 nM with hGLP-1R and 0.656 nM in assay [2].

B2: Example 1178 (peptide)
chain: YXQGTXTSDXXIXLDXKAQXEFIEXLIEGGPSSGAPPPSGSE
modifications: non-natural residues; AEEA-(γGlu)2-C18 diacid on Lys; amide; synthetic construct; SITE 2: note = 2-Aminoisobutyric Acid; SITE 6: note = alpha-methyl-2-fluoro-L-phenylalanine; SITE 10: note = 3-(4-Pyridyl)-L-alanine; SITE 11: note = alpha-methyl-L-serine; SITE 13: note = alpha-methyl-leucine; SITE 16: note = L-ornithine; SITE 17: note = Lysine is chemically mo
Take B2: the cAMP Rel EC50 (in the presence of 1% HSA) in assay [1] amounted to 270 nM; with hGLP-1R it was 39 nM; in assay [2] it was 0.544 nM.

B3: Example 1172 (peptide)
chain: YXQGTXTSDXXIXLDXKAQXEFIEXLIEGGPSSGAPPPSGSE
modifications: Aib, αMe residues, 4Pal, Orn, Me4Pal; acylated K; amide; synthetic construct; SITE 2: note = 2-Aminoisobutyric Acid; SITE 6: note = alpha-methyl-L-phenylalanine; SITE 10: note = 3-(4-Pyridyl)-L-alanine; SITE 11: note = alpha-methyl-L-serine; SITE 13: note = alpha-methyl-leucine; SITE 16: note = L-ornithine; SITE 17: note = Lysine is chemically modified th
Turning to B3, the Relative cAMP EC50 was determined as 2.52 nM in assay [1], 0.44 nM in the assay with hGLP-1R and 0.00886 nM in assay [2]. The cAMP Rel EC50 (in the presence of 1% HSA) in assay [1] is 303 nM; with hGLP-1R it was 45.5 nM; in assay [2], 0.7 nM.

B4: Example 1166 (peptide)
chain: YXQGTXTSDXXIXLDXKAQXEFIEXLIEGGPSSGAPPPSGSE
modifications: Aib, αMeF, 4Pal, αMeS, αMeL, Orn, Me4Pal, αMeY, acyl, amide; synthetic construct; SITE 2: note = 2-Aminoisobutyric Acid; SITE 6: note = alpha-methyl-L-phenylalanine; SITE 10: note = 3-(4-Pyridyl)-L-alanine; SITE 11: note = alpha-methyl-L-serine; SITE 13: note = alpha-methyl-leucine; SITE 16: note = L-ornithine; SITE 17: note = Lysine is chemically modified th
Take B4: the Relative cAMP EC50 was determined as 2.94 nM in assay [1], 0.478 nM with hGLP-1R and 0.00999 nM in assay [2]. Besides, the cAMP Rel EC50 (in the presence of 1% HSA) in assay [1] worked out at 427 nM; in the assay with hGLP-1R it was 65.6 nM; in assay [2], 1.1 nM.

B5: Example 1173 (peptide)
chain: YXQGTXTSDXXIXLDXKAQXEFIEXLIEGGPSSGEPPPSGSE
modifications: (γGlu)2-C18 diacid on Lys; non-natural residues; amide; synthetic construct; SITE 2: note = 2-Aminoisobutyric Acid; SITE 6: note = alpha-methyl-L-phenylalanine; SITE 10: note = …; SITE 11: note = alpha-methyl-L-serine; SITE 13: note = alpha-methyl-leucine; SITE 16: note = L-ornithine; SITE 17: note = Lysine is chemically modified th
On to B5, for which the Relative cAMP EC50 was found to be 2.31 nM in assay [1], 0.604 nM with hGLP-1R and 0.00943 nM in assay [2]. Also, the cAMP Rel EC50 (in the presence of 1% HSA) in assay [1] worked out at 254 nM; with hGLP-1R, 59.1 nM; in assay [2] it was 0.764 nM.

B6: Example 1163 (peptide)
chain: YXQGTXTSDXXIXLDXKAQXEFIEXLVEGGPSSGEPPPSGSE
modifications: non-natural residues; lipidated Lys; C-terminal amide; synthetic construct; SITE 2: note = 2-Aminoisobutyric Acid; SITE 6: note = alpha-methyl-2-fluoro-L-phenylalanine; SITE 10: note = 3-(4-Pyridyl)-L-alanine; SITE 11: note = alpha-methyl-L-serine; SITE 13: note = alpha-methyl-leucine; SITE 16: note = L-ornithine; SITE 17: note = Lysine is chemically mo
On to B6, for which the results for the Relative cAMP EC50 (in assay [1]; with hGLP-1R; in assay [2]) were 1.75 nM, 0.449 nM and 0.00951 nM, respectively. Also, the values for the cAMP Rel EC50 (in the presence of 1% HSA) (in assay [1]; with hGLP-1R; in assay [2]) were 163 nM, 35.4 nM and 0.721 nM, respectively.

B7: Example 1167 (peptide)
chain: YXQGTXTSDXXIXLDXKAQXEFIEXLIEGGPSSGEPPPSGSE
modifications: non-natural residues; Lys acylated C18 diacid; C-terminal amide; synthetic construct; SITE 2: note = 2-Aminoisobutyric Acid; SITE 6: note = alpha-methyl-L-phenylalanine; SITE 10: note = 3-(4-Pyridyl)-L-alanine; SITE 11: note = alpha-methyl-L-serine; SITE 13: note = alpha-methyl-leucine; SITE 16: note = L-ornithine; SITE 17: note = Lysine is chemically modified th
As to B7, the Relative cAMP EC50 in assay [1] worked out at 2.16 nM; with hGLP-1R, 0.636 nM; in assay [2], 0.011 nM. Moreover, the cAMP Rel EC50 (in the presence of 1% HSA) in assay [1] is 274 nM; in the assay with hGLP-1R it was 89.2 nM; in assay [2] it was 1.22 nM.

B8: Example 1157 (peptide)
chain: YXQGTXTSDXXIXLDXKAQXEFIEXLVEGGPSSGEPPPESE
modifications: not fully specified; non-natural residues; lipidated Lys; C-terminal amide; synthetic construct; SITE 2: note = 2-Aminoisobutyric Acid; SITE 6: note = alpha-methyl-2-fluoro-L-phenylalanine; SITE 10: note = 3-(4-Pyridyl)-L-alanine; SITE 11: note = alpha-methyl-L-serine; SITE 13: note = alpha-methyl-leucine; SITE 16: note = L-ornithine; SITE 17: note = Lysine is chemically mo
Turning to B8, the Relative cAMP EC50 in assay [1] was 2.04 nM; in the assay with hGLP-1R, 0.408 nM; in assay [2], 0.0124 nM. Also, the cAMP Rel EC50 (in the presence of 1% HSA) was found to be 384 nM in assay [1], 57.5 nM with hGLP-1R and 1.28 nM in assay [2].

B9: Example 1164 (peptide)
chain: YXQGTXTSDXXIXLDXKAQXEFIEXLIEGGPSSGAPPPSGE
modifications: non-natural residues; acylated Lys C18 diacid; C-term amide; synthetic construct; SITE 2: note = 2-Aminoisobutyric Acid; SITE 6: note = alpha-methyl-L-phenylalanine; SITE 10: note = 3-(4-Pyridyl)-L-alanine; SITE 11: note = alpha-methyl-L-serine; SITE 13: note = alpha-methyl-leucine; SITE 16: note = L-ornithine; SITE 17: note = Lysine is chemically modified th
Take B9: the Relative cAMP EC50 in assay [1] is 2.83 nM; with hGLP-1R, 0.495 nM; in assay [2], 0.0104 nM. Further, the cAMP Rel EC50 (in the presence of 1% HSA) worked out at 359 nM in assay [1], 63.5 nM with hGLP-1R and 1.17 nM in assay [2].

B10: Example 1160 (peptide)
chain: YXQGTXTSDXXIXLDXKAQXEFIEXLVEGGPSSGAPPPSGE
modifications: C-terminal amide; lysine acylated with (γ-Glu)2-C18 diacid; synthetic construct; SITE 2: note = 2-Aminoisobutyric Acid; SITE 6: note = alpha-methyl-2-fluoro-L-phenylalanine; SITE 10: note = 3-(4-Pyridyl)-L-alanine; SITE 11: note = alpha-methyl-L-serine; SITE 13: note = alpha-methyl-leucine; SITE 16: note = L-ornithine; SITE 17: note = Lysine is chemically mo
Turning to B10, the Relative cAMP EC50 was 2.41 nM in assay [1], 0.365 nM with hGLP-1R and 0.00773 nM in assay [2]. The results for the cAMP Rel EC50 (in the presence of 1% HSA) (in assay [1]; with hGLP-1R; in assay [2]) were 183 nM, 31.2 nM and 0.598 nM, respectively.

B11: Example 1171 (peptide)
chain: YXQGTXTSDXXIXLDXKAQXEFIEXLIEGGPSSGEPPPSGE
modifications: non-natural residues, (γGlu)2-C18 diacid lysine acylation, C-terminal amide; synthetic construct; SITE 2: note = 2-Aminoisobutyric Acid; SITE 6: note = alpha-methyl-L-phenylalanine; SITE 10: note = 3-(4-Pyridyl)-L-alanine; SITE 11: note = alpha-methyl-L-serine; SITE 13: note = alpha-methyl-leucine; SITE 16: note = L-ornithine; SITE 17: note = Lysine is chemically modified th
Turning to B11, the Relative cAMP EC50 in assay [1] turned out to be 2.19 nM; with hGLP-1R, 0.529 nM; in assay [2], 0.00953 nM. Further, the cAMP Rel EC50 (in the presence of 1% HSA) in assay [1] came to 233 nM; with hGLP-1R it was 52.9 nM; in assay [2] it was 0.718 nM.

The record behind these values is US20240270821A1, “GIP/GLP1/GCG TRI-RECEPTOR AGONISTS AND USES THEREOF” (priority 2023, published 2024).
